# Measured values published in patent US20250230251A1 (Bristol-Myers Squibb, published 2025).
# T1: huIL-18Rβ-HisAvi (human, UniProt O95256 20-356, biotinylated in the Octet blocking assay)
# T1 construct: Soluble analyte in all SPR runs; captured on streptavidin sensors in the Octet assay; also called human IL-18Rβ; human IL-18Rβ-Avi-His
# T1 sequence: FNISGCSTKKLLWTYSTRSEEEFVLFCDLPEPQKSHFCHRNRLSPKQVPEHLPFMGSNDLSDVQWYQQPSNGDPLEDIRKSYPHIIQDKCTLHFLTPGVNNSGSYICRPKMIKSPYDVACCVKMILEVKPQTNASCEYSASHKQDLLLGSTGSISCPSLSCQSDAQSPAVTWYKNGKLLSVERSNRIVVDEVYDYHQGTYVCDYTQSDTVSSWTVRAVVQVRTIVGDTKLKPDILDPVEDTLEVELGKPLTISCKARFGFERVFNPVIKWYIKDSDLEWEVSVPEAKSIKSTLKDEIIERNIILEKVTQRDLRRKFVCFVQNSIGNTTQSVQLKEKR
# T2: human IL-18Rβ on cells (human, UniProt O95256 20-599)
# T2 sequence: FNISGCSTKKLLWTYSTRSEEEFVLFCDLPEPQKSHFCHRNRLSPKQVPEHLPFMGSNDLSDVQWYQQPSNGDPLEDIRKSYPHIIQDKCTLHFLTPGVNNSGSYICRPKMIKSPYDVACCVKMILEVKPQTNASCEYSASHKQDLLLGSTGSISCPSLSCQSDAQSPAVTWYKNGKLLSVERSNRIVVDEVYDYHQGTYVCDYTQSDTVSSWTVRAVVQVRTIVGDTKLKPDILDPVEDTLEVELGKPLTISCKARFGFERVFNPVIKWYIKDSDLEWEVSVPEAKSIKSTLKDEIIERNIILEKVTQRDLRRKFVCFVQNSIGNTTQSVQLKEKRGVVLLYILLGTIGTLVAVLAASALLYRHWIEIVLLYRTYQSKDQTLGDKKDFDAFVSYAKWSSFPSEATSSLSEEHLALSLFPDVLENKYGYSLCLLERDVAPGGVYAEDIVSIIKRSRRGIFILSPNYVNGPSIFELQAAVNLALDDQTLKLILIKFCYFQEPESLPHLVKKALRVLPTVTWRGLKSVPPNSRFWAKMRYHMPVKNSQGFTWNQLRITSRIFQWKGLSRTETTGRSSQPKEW
# B1: P21 (antibody, human IgG1, kappa, V domains shown)
# VH: QVQLQQSGPGLVKPSETLSLTCTVSGGSISNYYWTWIRQPPGKGLEWIGYISDSGSTNYNPSLKSRVTISVDTSKNQFSLKLSSVTAADTAVYYCARETIVVRGFYFYVMDVWGQGTTVTVSS
# VL: AIQLTQSPSSLSASVGDRVTITCRASQGISSALAWYQQRPGKAPKLLIYDASNWESGVPSRFSGSGSGTDFTLTISSLQPEDFATYYCQQFNSYPWTFGQGTKVEIKR
# notes: Human IgG
# B2: P20 (antibody, human IgG1, kappa)
# heavy: QVQLQQSGPGLVKPSETLSLTCTVSGGSINNYYWSWIRQPPGKGLEWIGYIFYSGTTNYNPSLKSRVTISVDTSKNQFSLKLSSVTAADTAVYYCARDVGIAARNSYYYVMDVWGQGTTVTVSSASTKGPSVFPLAPSSKSTSGGTAALGCLVKDYFPEPVTVSWNSGALTSGVHTFPAVLQSSGLYSLSSVVTVPSSSLGTQTYICNVNHKPSNTKVDKRVEPKSCDKTHTCPPCPAPEAEGAPSVFLFPPKPKDTLMISRTPEVTCVVVDVSHEDPEVKFNWYVDGVEVHNAKTKPREEQYNSTYRVVSVLTVLHQDWLNGKEYKCKVSNKALPAPIEKTISKAKGQPREPQVYTLPPSREEMTKNQVSLTCLVKGFYPSDIAVEWESNGQPENNYKTTPPVLDSDGSFFLYSKLTVDKSRWQQGNVFSCSVMHEALHNHYTQKSLSLSPG
# light: AIQLTQSPSSLSASVGDRVTITCRASQGISSALAWYQQKPGKAPKFLIYDASSLESGVPSRFSGSGSGTDFTLTISSLQPEDFATYYCQQFNSYPITFGQGTRLEIKRTVAAPSVFIFPPSDEQLKSGTASVVCLLNNFYPREAKVQWKVDNALQSGNSQESVTEQDSKDSTYSLSSTLTLSKADYEKHKVYACEVTHQGLSSPVTKSFNRGEC
# notes: Human IgG
# B3: P20-V1 (antibody, human IgG1, kappa, V domains shown)
# VH: QVQLQESGPGLVKPSETLSLTCTVSGGSINNYYWSWIRQPPGKGLEWIGYIFYSGTTNYNPSLKSRVTISVDTSKNQFSLKLSSVTAADTAVYYCARDVGIAARNSYYYVMDVWGQGTTVTVSS
# VL: AIQLTQSPSSLSASVGDRVTITCRASQGISSALAWYQQKPGKAPKFLIYEASSLESGVPSRFSGSGSGTDFTLTISSLQPEDFATYYCQQFNSYPITFGQGTRLEIKR
# notes: Variant of P20
# Assays:
# [1] = target: T1, huIL-18Rβ-HisAvi; test: SPR T200, pH 7; control
# [2] = target: T1, huIL-18Rβ-HisAvi; test: SPR T200, mAb on anti-hFc, 37C, pH 7; control
# [3] = target: T1, huIL-18Rβ-HisAvi; test: SPR Biacore T200, mAb captured on anti-human Fc, huIL-18Rβ-HisAvi as analyte, PBST pH 6.0, 37 °C, 1:1 Binding fit
# [4] = target: T1, huIL-18Rβ-HisAvi; test: SPR T200, pH 7; sample T0
# [5] = target: T2, human IL-18Rβ on cells; test: cell-based or functional assay
# [6] = target: T1, huIL-18Rβ-HisAvi; test: SPR T200, pH 7; sample 4 w 4C
# [7] = target: T2, human IL-18Rβ on cells; test: cell-based or functional assay; remark: listed apart in the source
# [8] = target: T2, human IL-18Rβ on cells; test: cell-based or functional assay; remark: listed apart in the source
# [9] = target: T2, human IL-18Rβ on cells; test: cell-based or functional assay; remark: listed apart in the source
binder,measurement,setting,value
B1,Kd,[1],0.2 nM
same,koff,[1],7e-05 s⁻¹
same,kon,[1],350000 M⁻¹ s⁻¹
B2,apparent Kd (pooled screen),[2],0.18 nM
same,apparent koff (pooled screen),[2],5.2e-05 s⁻¹
same,apparent kon (pooled screen),[2],280000 M⁻¹ s⁻¹
same,apparent Kd (pooled screen),[3],2.35 nM
same,apparent koff (pooled screen),[3],0.000329 s⁻¹
same,apparent kon (pooled screen),[3],140000 M⁻¹ s⁻¹
B3,Kd,[4],0.27 nM
same,koff,[4],7.2e-05 s⁻¹
same,kon,[4],270000 M⁻¹ s⁻¹
same,"IC50, IL-18-mediated IFNg release, KG-1 cells, Average",[5],2.01 nM
same,"IC50, IL-18-mediated IFNg release, KG-1 cells, Exp. #1",[5],0.96 nM
same,"IC50, IL-18-mediated IFNg release, KG-1 cells, Exp. #2",[5],2.1 nM
same,"IC50, IL-18-mediated IFNg release, KG-1 cells, Exp. #3",[5],1.46 nM
same,"IC50, IL-18-mediated IFNg release, KG-1 cells, Exp. #4",[5],1.2 nM
same,"IC50, IL-18-mediated IFNg release, KG-1 cells, Exp. #5",[5],2.94 nM
same,"IC50, IL-18-mediated IFNg release, KG-1 cells, Exp. #6",[5],2.8 nM
same,"IC50, IL-18-mediated IFNg release, KG-1 cells, Exp. #7",[5],2.6 nM
same,Kd,[6],0.2 nM
same,koff,[6],5.7e-05 s⁻¹
same,kon,[6],280000 M⁻¹ s⁻¹
same,"Average IC50, LPS+IL-12 dependent IFNg production, human whole blood",[7],1.04 nM
same,"IC50, IFNg, human whole blood LPS+IL-12, Average",[8],1.6 nM
same,"IC50, IFNg, human whole blood LPS+IL-12, donor C163",[8],1.1 nM
same,"IC50, IFNg, human whole blood LPS+IL-12, donor C175",[8],1.48 nM
same,"IC50, IFNg, human whole blood LPS+IL-12, donor C177",[8],0.47 nM
same,"IC50, IFNg, human whole blood LPS+IL-12, donor C198",[8],4.9 nM
same,"IC50, IFNg, human whole blood LPS+IL-12, donor C200",[8],2.55 nM
same,"IC50, IFNg, human whole blood LPS+IL-12, donor C205",[8],1.56 nM
same,"IC50, IFNg, human whole blood LPS+IL-12, donor C215",[8],1.54 nM
same,"IC50, IFNg, human whole blood LPS+IL-12, donor C223",[8],0.83 nM
same,"IC50, IFNg, human whole blood LPS+IL-12, donor C229",[8],1.3 nM
same,"IC50, IFNg, human whole blood LPS+IL-12, donor C238",[8],0.57 nM
same,"IC50, IFNg, human whole blood LPS+IL-12, donor C241",[8],1.2 nM
same,"IC50, IFNg, human whole blood LPS+IL-12, donor C245",[8],1.22 nM
same,"IC50, IFNg, human whole blood LPS+IL-12, donor C251",[8],1.7 nM
same,"IC50, IFNg, human whole blood LPS+IL-12, donor C256",[8],1.38 nM
same,"IC50, IFNg, human whole blood LPS+IL-12, donor C257",[8],2.22 nM
same,"Average IC50, IFNg, Crohn's disease LPLs, IL-18+IL-12",[9],18.3 nM
same,"Average IC50, IFNg, healthy (non-IBD) LPLs, IL-18+IL-12",[9],39.8 nM
same,"Average IC50, IFNg, ulcerative colitis LPLs, IL-18+IL-12",[9],16.5 nM
same,"IC50, IFNg, Crohn's disease LPLs, IL-18+IL-12, replicate 1",[9],3.82 nM
same,"IC50, IFNg, Crohn's disease LPLs, IL-18+IL-12, replicate 2",[9],15.4 nM
same,"IC50, IFNg, Crohn's disease LPLs, IL-18+IL-12, replicate 3",[9],89.9 nM
same,"IC50, IFNg, Crohn's disease LPLs, IL-18+IL-12, replicate 4",[9],9.47 nM
same,"IC50, IFNg, Crohn's disease LPLs, IL-18+IL-12, replicate 5",[9],19.6 nM
same,"IC50, IFNg, Crohn's disease LPLs, IL-18+IL-12, replicate 6",[9],5.68 nM
same,"IC50, IFNg, Crohn's disease LPLs, IL-18+IL-12, replicate 7",[9],0.9 nM
same,"IC50, IFNg, Crohn's disease LPLs, IL-18+IL-12, replicate 8",[9],1.33 nM
same,"IC50, IFNg, healthy (non-IBD) LPLs, IL-18+IL-12, replicate 1",[9],12.8 nM
same,"IC50, IFNg, healthy (non-IBD) LPLs, IL-18+IL-12, replicate 2",[9],9.57 nM
same,"IC50, IFNg, healthy (non-IBD) LPLs, IL-18+IL-12, replicate 3",[9],44.8 nM
same,"IC50, IFNg, healthy (non-IBD) LPLs, IL-18+IL-12, replicate 4",[9],132 nM
same,"IC50, IFNg, healthy (non-IBD) LPLs, IL-18+IL-12, replicate 5",[9],0.0116 nM
same,"IC50, IFNg, ulcerative colitis LPLs, IL-18+IL-12, replicate 1",[9],34.4 nM
same,"IC50, IFNg, ulcerative colitis LPLs, IL-18+IL-12, replicate 2",[9],10.8 nM
same,"IC50, IFNg, ulcerative colitis LPLs, IL-18+IL-12, replicate 3",[9],10.3 nM
same,"IC50, IFNg, ulcerative colitis LPLs, IL-18+IL-12, replicate 4",[9],2.63 nM
same,"IC50, IFNg, ulcerative colitis LPLs, IL-18+IL-12, replicate 5",[9],0.0024 nM
same,"IC50, IFNg, ulcerative colitis LPLs, IL-18+IL-12, replicate 6",[9],0.402 nM
same,"IC50, IFNg, ulcerative colitis LPLs, IL-18+IL-12, replicate 7",[9],56.7 nM
